Measurements taken from paper PMC2323325, “Conserved Regulation of MAP Kinase Expression by PUF RNA-Binding Proteins”.

Columns and labels:
PUM2 = PUM2 (Homo sapiens, UniProt Q8TB72 706-1048); assay: EMSA; Not stated; gel shift assays performed as described in ref 49; settings: protein: recombinant
FBF-2 = biological target: T1, FBF-2 (Caenorhabditis elegans, UniProt Q09312 162-566); assay: as above; settings: protein: recombinant
T1 sequence: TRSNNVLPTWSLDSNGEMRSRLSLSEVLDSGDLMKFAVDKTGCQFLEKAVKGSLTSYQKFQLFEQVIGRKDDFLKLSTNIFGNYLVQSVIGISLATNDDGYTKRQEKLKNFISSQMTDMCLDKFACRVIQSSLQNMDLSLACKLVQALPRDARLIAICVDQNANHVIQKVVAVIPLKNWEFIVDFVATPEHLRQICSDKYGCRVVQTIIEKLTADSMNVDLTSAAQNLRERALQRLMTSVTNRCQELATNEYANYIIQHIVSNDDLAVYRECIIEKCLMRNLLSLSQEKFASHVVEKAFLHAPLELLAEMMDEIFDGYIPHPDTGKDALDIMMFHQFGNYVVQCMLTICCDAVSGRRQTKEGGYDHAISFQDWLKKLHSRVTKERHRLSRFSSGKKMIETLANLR

Sequence of PUM2 (Q8TB72 706-1048): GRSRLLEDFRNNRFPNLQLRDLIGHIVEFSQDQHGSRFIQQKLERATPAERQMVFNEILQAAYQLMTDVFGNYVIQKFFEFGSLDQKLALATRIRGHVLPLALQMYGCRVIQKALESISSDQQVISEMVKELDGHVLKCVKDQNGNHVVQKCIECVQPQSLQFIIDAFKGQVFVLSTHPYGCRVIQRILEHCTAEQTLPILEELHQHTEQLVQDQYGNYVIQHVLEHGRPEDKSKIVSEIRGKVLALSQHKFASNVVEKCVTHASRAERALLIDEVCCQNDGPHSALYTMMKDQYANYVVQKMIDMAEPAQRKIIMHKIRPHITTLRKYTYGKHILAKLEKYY

Binder: AGGAGAGAAGAAAGUGUAGAUAGUUAAA (ssRNA) [p38alpha NREb]
- binding result (PUM2): binds

Binder: AGUUUCUUUUUCGAACAAUCAUAAUCCA (ssRNA) [mpk-1 FBEa*]
- binding result (FBF-2): no binding

Binder: AGUAUAUUUGAAACUGUAAAUAUGUUUG (ssRNA) [p38alpha NREa]
- binding result (PUM2): binds

Binder: UAUUUUACGUAUUUACAAAUAUAUUCAU (ssRNA) [mpk-1 FBEb*]
- binding result (FBF-2): no binding

Binder: UAUUUUACGUAUUUUGUAAUAUAUUCAU (ssRNA) [mpk-1 FBEb]
- Kd (FBF-2): ~320 nM

Binder: AGUUUCUUUUUCGAUGUAUCAUAAUCCA (ssRNA) [mpk-1 FBEa]
- Kd (FBF-2): ~93 nM

Binder: UUCAUGAAAAUAAAUGUACAUCUUCUAU (ssRNA) [Erk2 NRE]
- binding result (PUM2): binds
